Test results taken from the nanobody polyreactivity screen of Harvey et al. (2022).

Assay: yeast display, Sf9 membrane polyspecificity reagent, FACS + sequencing; frameworks hold sequencing errors
Procedure, shortened: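 In a synthetic yeast display library (Saccharomyces cerevisiae BJ5465), nanobody expression was induced with galactose for 36–48 hours. FACS gates were set low and high (top ~1%) using anti-HA fluorescence for expression and streptavidin fluorescence for binding of the Sf9 membrane reagent. Each polyreactivity label is drawn from the gate of origin.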
With “QDHLVESGGGLVQAGGSLRLSCAASGSIFGLYAMGWYRQSPGKERELVAAISFSGDTYYADSVKGRFTISRDNAKNTVYLQMNSLKPEDTAVYYCAAEDWYEYDYWGQGTQVTVSS” the “polyreactivity (PSR sort gate)” value was “high polyreactivity”.
In the case of “QDHLVESGGGLVQAGGSLRLSCAASGSIFYRYAMGWYRQAPWKERELVAAISRSGGTTYYADSVKGRFTISRDNAKNTVYLQMNSLKPEDTAVYYCAARVFHPYSTDPYYYWGQGTQVTVSS”, the “polyreactivity (PSR sort gate)” value is reported as “high polyreactivity”.
With “QDHLVESGGGLVQAGGSLRLSCAASGSTFGKNTMGWYRQAPGKERELVAAISRGVSTYYADSVKGSFTISRDNAKNTVYLQMNSLKPEDTAVYYCAAQEAYRWYGYYYWGQGTQVTVSS” the “polyreactivity (PSR sort gate)” value was “high polyreactivity”.
For “QDHLVESGGGLVQAGGSLRLTCAASGSIFISYAMGWYRQAPGKERELVAAISIRGTRTYYADSVKGRFTISRDNAKNTVSLQMNSLKPEDTAVYFCAADASYTEGMDYWGQGTQVTVSS”, the “polyreactivity (PSR sort gate)” value was “high polyreactivity”.
For “QDHLVESGRGLVQAGGSLRLSCAASGSIFPSYAMVWNRQAPGKERDLVDSITTSGGSTYYADSVKGRFTISRDNAKNTVYLQMNSLKPEDTAVYYCNARRYYYSWGREGGYWGQGTQVTVSS”, the “polyreactivity (PSR sort gate)” value was “low polyreactivity”.
For “QDKLVESGGALVQAGGSLRISCAASGNIFSYYAMGWNRQAPGKEMDLVAAISRRGTNTYYADSVKGRFTISRDKAKNTVYLQMNSLKPEDTAVYYCASYGPYQSSYHYDYWGQGTQVTVSS”, the “polyreactivity (PSR sort gate)” value was “high polyreactivity”.
In the case of “QDLHVESGGGVVQAGGSLRVSCAASGRTFISYAMGWSRQAPGKERELVATITRDGRTNYADSVKGRFTFSRDNAKNTVYLQMNSLNAEDTAVYYCNADSRYRYDYWGQGSQVTVSS”, the “polyreactivity (PSR sort gate)” value is reported as “low polyreactivity”.
For “QDLLVESGGGLVQAGGRLRLSCAASGSTFRYYAMGWYRQAPGKERELVAAITNSCGSTNYADSVKGRFTISRDNAKNTVYLQMNSLKPEDTAVYYCNANTWRYFTMGYWGHGTQVTVSS”, the “polyreactivity (PSR sort gate)” value was “high polyreactivity”.
In the case of “QDNLVESGGGLVQAGGSLRLICAASGSTNRSNAMGWYRQAPGKERELVAANSRTGGRTYYADSVKGRFTISRDNAKNTVYLQMKCLNQEDTAVYYCARADKRLEYSENYYWGQGTQVTVSS”, the “polyreactivity (PSR sort gate)” value is reported as “high polyreactivity”.
With “QDQHVESGGGLVQAGGSLRLICSASGSTNGLGWYRQAPGKERELVAVITWDTGGTYYADSVKGRFTISRDNAKNTVYLQMNSLKPEDTAVYYCAKDVGHGAGNLMGYWGQGTQVTVSS” the “polyreactivity (PSR sort gate)” value was “low polyreactivity”.
For “QDQHVESGGGLVQAGGSLRLRCSASVRTYFDYDMGRYRQAPGKERELVAAISQSGGSTYYADSVKGRFTISRDNAKYTFYLVMNSLKPEDTGVYECNAYYGYGHRIYDYWGQGTQVTVSS”, the “polyreactivity (PSR sort gate)” value was “high polyreactivity”.
In the case of “QDQHVESGGGLVQAGGSLRLSCAASGFIFSQYAMGWYRQAPGKERELVAAISSGSTYADSVKGRFTISRDNAKNTVYLQMNSLKPEDTAVYYCAVDYHQAWPSADYWFEYDYWGQGTQVTVSS”, the “polyreactivity (PSR sort gate)” value is reported as “low polyreactivity”.
For “QDQHVESGGGLVQAGGSLRLSCAASGSIFDVYTMGWYRQAPGKERELVAAINTGGGSTYYADSVKGRFTISRDKAKNTVYLQMNSLKPEDTAVYYCAASVYHYGPLYYWGQGTQVTVSS”, the “polyreactivity (PSR sort gate)” value was “low polyreactivity”.
In the case of “QDQHVESGGGLVQAGGSLRLSCAASGSIFPWYTMGWYRQAPGKERELVASITKSGARTYYADSVKGRFTISRDNAKNTVYLEITSLKPEDTAVYYCAASLWQRAKVRYQYWGQGPQVTVSS”, the “polyreactivity (PSR sort gate)” value is reported as “high polyreactivity”.
In the case of “QDQHVESGGGLVQAGGSLRLSCAAYGSTFLYYAMGWFRQAPGKERELVAAITSGGSTYYADSVKGRFTISRDNPKNTVFLQMNRLKPEDTAVYYCTVFGYGYWGQGTQVTVSS”, the “polyreactivity (PSR sort gate)” value is reported as “high polyreactivity”.
In the case of “QDQHVESGGGLVQAGGSLRLSFAASGRTFISYTKGWYRPAPGKERELVAAINFSGGITYYADSVKGRFTISHDNAMNTVYLQMNSLKPVDTAVYYCAADWRTRYDYWGQGTQVTVSS”, the “polyreactivity (PSR sort gate)” value is reported as “low polyreactivity”.
For “QDQHVESGGGLVQAGGSLRLSGAASGGTLWVNTMGWYRPAPGKERELVAAISRRGGSTYYADSVKGRFTISRDNAKNTVYLQMNSLKPEDTAVYYCAKGYSSHYWWAYDSWGQGTLVTVSS”, the “polyreactivity (PSR sort gate)” value was “high polyreactivity”.
For “QDQHVESGGGLVQAGGSLRLSGADSGSIFLLYAMGCYRQAPGKERELVAAISTRDGSTYYADSVKGRFTISRDNAKNTVYLQMNSLKPEDTAVYYCATLYSYNYWGQGTQVTVSS”, the “polyreactivity (PSR sort gate)” value was “high polyreactivity”.
For “QDQHVESVGGLVQAGGSLRLSCAASGRTFYRYAMGWSRQAPGKEREFVAAISHGGSNTRYADSVKGRFTISRDNAKNTVYLQMKSLKPEDTAVYYCAARAYQHYNWGQGTQVTVSS”, the “polyreactivity (PSR sort gate)” value was “high polyreactivity”.
With “QDQHVESVGGLVQAGGSLRLSIAASVLILWQNAMGWYRQAPGKERELVARITWSGVSTDYADSVKGRFTISRDNAKNTVYFQMNSLKPEDTADYYWAADYNRYSYNYARYSLGQNDYWGQGTQVTVSS” the “polyreactivity (PSR sort gate)” value was “low polyreactivity”.
In the case of “QDQIVESGGGLVQAGGSLRLSCAASGSTFQANAMGWYRQAPGKERELVAAISRSGGSTYYADSVKGRFTISRDNAKNTVYLQMNSLKPEDTAVFYCAADYEYSGYGYWGQGTQVTVSS”, the “polyreactivity (PSR sort gate)” value is reported as “high polyreactivity”.
With “QDQIVESGGGLVQAGGSLRLSCASYGSTFDRYAMGWYRQAQGKERELVAVITQSGSSTYYADSVKGRFTISRDNAKNTVYLQMKSLKPEDTAVYYCAARYQGSRGQEYYYWGQGTQVTVSS” the “polyreactivity (PSR sort gate)” value was “high polyreactivity”.
In the case of “QDQIVESGGGLVQAGGSLRLSCSATGRTYVIYAMGWYRQAHGKERELVASIRRGGSTSYADSVKGRFTISRDNAKNTVYLQMKSLKPEDTAVYYCAAGAHRASSSGNGYWGQGSQVTVSS”, the “polyreactivity (PSR sort gate)” value is reported as “high polyreactivity”.
In the case of “QDQLEESGGGLVQAGGSLRLICAAYGSTFVLYDMGWYRQEPGKERELVADISYSGGSTYYEDSVKGRFTISRDNAKYTVYLLMKRLIPEDTAFYYCIAGVLVLLYAYLPSELEYWGQGTQVTVSS”, the “polyreactivity (PSR sort gate)” value is reported as “low polyreactivity”.
For “QDQLEESGGGLVQAGGSLRLSCAASGRMFNSYAMGWYRQAPGKERELVAAISFSGGSTYYADSVKGRFTISRDNAKNTVYLQMNSLKPEDTAVYYCNAVTAVDTAHDYWGQGTQVTVSS”, the “polyreactivity (PSR sort gate)” value was “high polyreactivity”.
In the case of “QDQLEESGGGLVQAGGSLRLSCAASGRTFFHYAMGWYRQAPGKERELVAGISSGGRTTYADSVKGRFTISRDNAKNTVYLQMISLKPEDTAVYYCAASYIVWLTRGAPRKRFDYWGQGTQVTVSS”, the “polyreactivity (PSR sort gate)” value is reported as “high polyreactivity”.
For “QDQLEESVGGLVQAGGSLRLSCAASGSTFSYYAMGWYRQATGKERELVAAISTLGSSTYYADSVKGRFTISRDNAKNTVNLQMNSLKPEDTAVYYCAVDQYKYDWFYDYYGYTYVYWGQGTQVTVSS”, the “polyreactivity (PSR sort gate)” value was “high polyreactivity”.
For “QDQLGESGGGLVQAGGSLRLTCAASGFIFSNNAMGWYRPSPGKERELVAAISGSGVSTYYADSVKGRFTISRDNAKNTVYLQMNSLKPEDTAVYYCAASASLRHDYWGQGTQVTVSS”, the “polyreactivity (PSR sort gate)” value was “high polyreactivity”.
For “QDQLLESGGGLVQAGGSLRLSCAASGSTFGANAMGWYRQAPGKEREFVAAISRSGLRTYYADSVKGRFTNSRDYAKNTVYIQMNSLKPEDTAVYYCSADCYWWTYTRYDYWGQGSQVTVSS”, the “polyreactivity (PSR sort gate)” value was “low polyreactivity”.
For “QDQLVDSGGGLVQAGGNLRLSCAASGRTFPPYSMGWDRQAPGKERELVAAISGSGASTYYADSEKGRFTISRDNAKNTVYLQMNCLKPEDSAVYYCARYRGYWGRYYGVDYGYWGQGTQVTVSS”, the “polyreactivity (PSR sort gate)” value was “high polyreactivity”.
In the case of “QDQLVDSGGGLVQAGGSLRLICAASGRTYRKYAMGWYRQAPGKERELVADISWSGGSTYYANSVKGRFTISRDIAKNTVYLQMNSLKPEDTAVYYCAAVPVHTGSLYWGFTTGYDYWGQGTQVTVSS”, the “polyreactivity (PSR sort gate)” value is reported as “low polyreactivity”.
In the case of “QDQLVDSGGGLVQAGGSLRLSCAASGRSFRNNPMGWYRQAPGKERELVAAITSSGASTYYADSVKGRFTISRDNAKNTVYLQMNSLKPEDTAVYSCAAATVRQFRSSLDYWGQGTQVTVSS”, the “polyreactivity (PSR sort gate)” value is reported as “high polyreactivity”.
For “QDQLVDSGGGLVQAGGSLRLSCAASGSIQSRYAMGWYRQAPGKERELVAAISRSTDSTYYADSVKGRFTISRDNAKNTVYLKMNSLKPEDTAGYYCNAVYRSSYQKGSMDYWGQGTQVTVSS”, the “polyreactivity (PSR sort gate)” value was “high polyreactivity”.
With “QDQLVDSGGGLVQAGGSLRLSCAASGTFFMGWYRQAPGKERELVAGISIYDGSTYYADSVKGRFTISRDNAKNTVYLQMNRLKPEDTAVYYCAAEFYPTTGFDYWGQGTQVTVSS” the “polyreactivity (PSR sort gate)” value was “low polyreactivity”.
With “QDQLVDSGGGLVQAGGSLRLSCAASVRTFDRYAMGWYRQAPGKVRELVAAISGRGGSTYYADSVKGRFTISRDNAKNTVYLQMNSLKPEDTAVYYCAARGSLWGAPSDYYYCGQGTQVTVSS” the “polyreactivity (PSR sort gate)” value was “high polyreactivity”.
With “QDQLVDSGGGLVQAGGSLSLSCAASGRTSGRYAMGWYRQAPGKERELVAGITSSGGSTYYADSVKGRFTISRDNAKNTVYLQMNSLKPEDTAVYYCAKVWGAKGKTYRMYSWGKGTQVTVSS” the “polyreactivity (PSR sort gate)” value was “high polyreactivity”.
For “QDQLVDSGVGLVQAGGSLRLSCAASGLIFGRNVMGWYRQAPGKERELVAAISWSGGRTYYADSVKGRFTISRDNAKNTVYLQMNSLKPEDTAVDYCATDRSTRTYRSPYDYWGQGTQVTVSS”, the “polyreactivity (PSR sort gate)” value was “high polyreactivity”.
With “QDQLVEACGGLVQAGGSLRLSCASSRSIIRGYAMGWYIQAHGKERELVAVIRRTSVSTYYADSVKGRFTISRDNAKNTVYLQMKCLKPEDTAVYYCNTLRLSSYPYYGYLGQGTQVTVSS” the “polyreactivity (PSR sort gate)” value was “high polyreactivity”.
With “QDQLVEAGGGLVQAGGSLRKSCAASGRIFNTNAMGWNRQAPGKERELVAGITDSGDSTYYADSVKGRFTISRDNAKNTVYLQMNRLKPEDSAVYYCATDPASPYIYDFWGQGTQVTVSS” the “polyreactivity (PSR sort gate)” value was “low polyreactivity”.
For “QDQLVESAGGLVQAGGSLRLSCAASASIFVSYAMGWYRQAPGKERELVAAITRSGGSTYYSDSVKGRFTISRDNAKYTVYLQMNSLKPDDTAVYYCAARSYLGAYRRFYWGQGTQVTVSS”, the “polyreactivity (PSR sort gate)” value was “high polyreactivity”.
In the case of “QDQLVESAGGLVQAGGSLRLSCAASGSISYNNVMGWYRQAPGKERELVARIRSGGSTYYADSVKGRFTISRDNAKNTVYLQMNSLKPEDTAVYYCAARTKRQAGSYGYWGQGTQVTVSS”, the “polyreactivity (PSR sort gate)” value is reported as “high polyreactivity”.
In the case of “QDQLVESAGGLVQAGGSLRLTCAASGFIFADNAMGWYRQAPGKERELVAGITSGGITYYADSVKGRFTISRDNAKNTVYLQMNCLKPEDTAVYYCNTTSYPEFDYWGHGTQVTVSS”, the “polyreactivity (PSR sort gate)” value is reported as “low polyreactivity”.
In the case of “QDQLVESCGALVQAGGSLRLSCAASGSTFNFYAMGWYRQAPGKERELVAAITWRGGSTYYADSVKGRFTISRDFAKNTVYLQMNSLKPEDSAVYYCAAARGKDGYWGQGTQVNVSS”, the “polyreactivity (PSR sort gate)” value is reported as “high polyreactivity”.
